From publication PMC10815852, “A Non-Functional Carbon Dioxide-Mediated Post-Translational Modification on Nucleoside Diphosphate Kinase of Arabidopsis thaliana” (International Journal of Molecular Sciences, 2024)
Positions count from the first letter of the chain named. Values joined by “and” are separate entries in the source; they are usually repeats but may differ in a detail not shown here. Equal entries are not always repeated. Values belong to the molecule of their own block, whether it stands above or below them.

Tests used:
[1] = target: T1, AtNDK1 (Arabidopsis nucleoside diphosphate kinase 1) (Arabidopsis thaliana, UniProt P39207); experiment: NDK assay, ATP formation by ATP determination kit; assay type: biochemical; conditions: substrate inhibition by ADP (fit of Michaelis-Menten data with 0-100 μM ADP); 50 μM GTP; 2 mM MgCl2, pH 7.6, 25 °C
T1 construct: gene NDK1; full open reading frame in pGEX6P-1 (BamHI/EcoRI, synthetic), GST tag cut with PreScission protease, E. coli T7 Express, size exclusion purified, hexamer
T1 sequence (P39207 1-149): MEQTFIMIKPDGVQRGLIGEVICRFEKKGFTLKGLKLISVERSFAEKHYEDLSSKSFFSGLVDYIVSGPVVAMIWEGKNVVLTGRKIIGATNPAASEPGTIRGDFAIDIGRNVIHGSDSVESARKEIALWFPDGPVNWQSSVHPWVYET

[2] = target: T1, AtNDK1 (Arabidopsis nucleoside diphosphate kinase 1); experiment: NDK assay, ATP formation by ATP determination kit; assay type: biochemical
[3] = substrate: Nc1nc2c(ncn2[C@@H]2O[C@H](COP(=O)(O)OP(=O)(O)OP(=O)(O)O)[C@@H](O)[C@H]2O)c(=O)[nH]1; experiment: NDK assay, ATP formation by ATP determination kit; assay type: biochemical, Arabidopsis thaliana; conditions: 35 μM ADP fixed, 0-100 μM GTP, 2 mM MgCl2, pH 7.6, 25 °C
[4] = substrate: Nc1ncnc2c1ncn2[C@@H]1O[C@H](COP(=O)(O)OP(=O)(O)O)[C@@H](O)[C@H]1O; experiment: NDK assay, ATP formation by ATP determination kit; assay type: biochemical, Arabidopsis thaliana; conditions: 50 μM GTP fixed, 0-100 μM ADP, substrate inhibition model, 2 mM MgCl2, pH 7.6, 25 °C
[5] = target: the molecule itself; experiment: SEC; analytical SEC, Superose 6 increase 10/300 GL; 30 mM Tris pH 7.9, 200 mM NaCl, 1 mM DTT, 1 mM EDTA; sample ~1 mg/mL, 100 uL injected; size and oligomeric state approximated from retention volume and a standard curve; self-association (hexamer, dimer)
[6] = target: the molecule itself; experiment: as above; remark: listed apart in the source

Ki [1]: 132000 nM
Molecule: Nc1ncnc2c1ncn2[C@@H]1O[C@H](COP(=O)(O)OP(=O)(O)O)[C@@H](O)[C@H]1O [ADP]

IC50 [2]: 681 nM
Molecule: Nc1nc2c(ncn2[C@@H]2O[C@H](COP(=O)(O)OP(=O)(O)OP(O)(O)=S)[C@@H](O)[C@H]2O)c(=O)[nH]1 [GTPγS, guanosine 5′-O-[γ-thio] triphosphate]

B1: Arabidopsis thaliana nucleoside diphosphate kinase 1 (AtNDK1), wild-type (enzyme, UniProt P39207 1-149, looked up)
chain: T1 sequence (P39207 1-149)
notes: Arabidopsis thaliana NDK1, open reading frame cloned into BamHI/EcoRI of pGEX6P-1; Hexamer by analytical SEC; also called WT AtNDK1; Arabidopsis NDK1; source: E. coli T7 express, purified (GSTrap, PreScission cleavage, glutathione agarose, SEC); not shown: GST, N-terminal, cleaved
Km [3]: 22.4 µM
Km [4]: 24.6 µM
stoichiometry N [5]: 6
relative absorbance maximum of the (AtNDK1)2 peak [6]: 0.1
relative absorbance maximum of the (AtNDK1)6 peak [6]: 1

B2: AtNDK1-K9A (enzyme, Arabidopsis thaliana, UniProt P39207 1-149, looked up)
chain: T1 sequence (P39207 1-149) with K9A
notes: Arabidopsis thaliana NDK1, mutant open reading frame cloned into BamHI/EcoRI of pGEX6P-1; Elutes as a mix of hexamer and dimer by analytical SEC; source: E. coli T7 express, purified (GSTrap, PreScission cleavage, glutathione agarose, SEC); not shown: GST, N-terminal, cleaved
stoichiometry N [5]: 6 and 2
relative absorbance maximum of the (AtNDK1)2 peak [6]: 0.73
relative absorbance maximum of the (AtNDK1)6 peak [6]: 1

B3: AtNDK1-K9R (enzyme, Arabidopsis thaliana, UniProt P39207 1-149, looked up)
chain: T1 sequence (P39207 1-149) with K9R
notes: as for B2
stoichiometry N [5]: 6 and 2
relative absorbance maximum of the (AtNDK1)2 peak [6]: 0.25
relative absorbance maximum of the (AtNDK1)6 peak [6]: 1

B4: AtNDK1-K9E (enzyme, Arabidopsis thaliana, UniProt P39207 1-149, looked up)
chain: T1 sequence (P39207 1-149) with K9E
notes: Arabidopsis thaliana NDK1, mutant open reading frame cloned into BamHI/EcoRI of pGEX6P-1; Elutes as a mix of hexamer and dimer by analytical SEC, dimer peak the larger; source: E. coli T7 express, purified (GSTrap, PreScission cleavage, glutathione agarose, SEC); not shown: GST, N-terminal, cleaved
stoichiometry N [5]: 6 and 2
relative absorbance maximum of the (AtNDK1)2 peak [6]: 1
relative absorbance maximum of the (AtNDK1)6 peak [6]: 0.4
